Experimental data published in patent US10654925B2, “Anti-marinobufagenin antibodies and uses thereof” (priority 2018, dated 2020).

B1: 236/237: human anti-MBG antibody, VH SEQ ID NO: 14, VL SEQ ID NO: 15 (antibody, listed as Homo sapiens, V domains shown)
VH: QVQLQESGPGLVKPSETLSLTCTVSGGSISSSSYYWGWIRQPPGKGLEWIGSIYYSGSTYYNPSLKSRVTISVDTSKNQFSLKLSSVTAADTAVYYCARARYNWNYVLFDYWGQGTLVTVSS
VL: QAVLTQPSSVSAAPRQRVTISCSGSASNIGRNGVSWYHQVPGKAPRLLLSHDGLVTSGVPDRLSVSKSGTSASLAISGLHSDDEGDYYCAVWDDSLNAVVFGGGTKLTVLS
B2: 201/202: human anti-MBG antibody, VH SEQ ID NO: 22, VL SEQ ID NO: 23 (antibody, listed as Homo sapiens, V domains shown)
VH: QLQLQESGPGLVKPSQTLSLTCTVSGGSISSGGYYWGWIRQPPGKGLEWIGSIYYSGNTYYNPSLKSRVTISVDTSKNQFSLKLSSVTAADTAVYYCARASIAARTFDYWGQGTLVTVSS
VL: QSVLTQPPSVSAAPGQKVTISCSGSSSNIGNNYVSWYQQLPGTAPKLLIYDNNKRPSGIPDRFSGSKSGTSATLGITGLQTGDEADYYCGTWDSSLSAYVFGTGTKVTVL
B3: 203/204: human anti-MBG antibody, VH SEQ ID NO: 30, VL SEQ ID NO: 31 (antibody, listed as Homo sapiens, V domains shown)
VH: QLQLQESGPGLVKPSETLSLTCTVSGGSISSYYWGWIRQPPGKGLEWIGSIYYSGSTYYNPSLKSRVTISVDTSKNQFSLQLKSVTPEDTAVYYCARVRPPAATFDYWGQGTLVTVSS
VL: QSVVTQPPSVSAAPGQKVSISCSGGSSNIGNNYVSWYQQLPGTAPRLLIYENNNRPSGIPDRFSGSKSGTSATLGITGLQTGDEADYYCGTWDSSLRAVVFGGGTKLTVL
B4: 206/208: human anti-MBG antibody, VH SEQ ID NO: 36, VL SEQ ID NO: 37 (antibody, listed as Homo sapiens, V domains shown)
VH: QVQLQESGPGLVKPSETLSLTCTVSGGSISSSSYYWGWIRQPPGKGLEWIGSIYYSGSTYYNPSLKSRVTISVDTSKNQFSLKLSSVTAADTAVYYCARVNLRGAFDIWGQGTTVTVSS
VL: QSVVTQPPSVSGAPGQRVTISCTGSSSNIGAGYDVHWYQQLPGTAPKLLIYENNKRPSGIPDRFSGSKSGTSATLGITGLQTGDEADYYCGTWDSSLSAVVFGGGTKLTVL

Key:
[1] = system: Na^+K^+-ATPase (NKA); assay: Na^+K^+-ATPase activity (Malachite Green Phosphate Assay); assay type: biochemical, rat; conditions: NKA from rat heart (SLP fraction); Pi read as OD 630 nm; FIG. 4
Description: Na^+K^+-ATPase (NKA) was purified from rat heart. The NKA was collected as the sarcolemmal/particulate (SLP) fraction and frozen.
Na^+K^+-ATPase activity was measured as follows: aliquots of SLP were mixed with Reaction Buffer (200 mM Tris-HCl, pH 7.5, 200 mM NaCL, 30 mM MgCl2, 60 mM KCl, 10 mM EGTA, 100 μg/mL PMSF, 2 μg/mL pepstatin A, and 2 μg/mL aprotinin). Reactions were performed with or without MBG and with or without anti-MBG antibodies (1-100 μg/mL). Ouabain was used as positive control for NKA inhibition. Tubes were prewarmed, and ATP was added. Reactions were stopped and were placed on ice.
Phosphate was assayed using the Malachite Green Phosphate Assay. Phosphate standard or sample was added to each well of a 96-well plate, followed by Reagent A. Reagent B was added, with mixing and incubation. OD was then read at 630 nm in a microplate spectrophotometer.

[2] = ELISA avidity estimate on MBG-BSA; assay type: binding; conditions: wells coated with 2 μg/ml MBG-BSA; IgG
Description: (§1) The avidity of anti-MBG antibodies for MBG was estimated in an ELISA. Wells of a microtiter plate were coated with 2 μg/ml of either MBG-bovine serum albumin (BSA) or MBG-keyhole limpet hemocyanin (KLH). The wells were then blocked with 1% BSA. A test IgG antibody at varying concentrations (typically from about 0.0001 nM to about 25 nM) was added to the wells. The test IgG bound to immobilized MBG was detected with an anti-human Fc, horseradish peroxidase (HRP)-conjugated secondary antibody (Jackson ImmunoResearch). After washing of the wells, an appropriate HRP reagent (e.g., TMB ultra, Thermo Fisher) was added to the wells. Optical density (OD) at 450 nm was measured by a microplate reader. The concentration of test antibody at the midpoint of the binding curve is an estimate of avidity for MBG.

[3] = ELISA avidity estimate on MBG-KLH; assay type: binding; conditions: wells coated with 2 μg/ml MBG-KLH; IgG
Description: as §1

[4] = Competitive ELISA, relative CTS specificity, free MBG as competitor; assay type: binding; conditions: competition with immobilized MBG-BSA; normalized to MBG = 100%
Description: (§2) The specificity (relative affinity) of anti-MBG antibodies for MBG relative to various cardiotonic steroids (CTSs) was determined in a competitive ELISA. Each anti-MBG antibody was tested for its binding to immobilized MBG in the presence of free MBG, resibufogenin (RBG), cinobufagin (CINO), ouabain (OUB) or digoxin (DIG) as a competitor. A constant amount of an anti-MBG antibody (typically 1-5 μg/mL) and varying concentrations of each CTS (from 10^−12M to 10^−5M) were pre-incubated before being added to the MBG-BSA-coated wells. After washing of the wells, an anti-human Fc, HRP-conjugated secondary antibody (at 1:5000 dilution) was added to the wells and incubated at 37° C. for 1 hr. After washing of the wells, an appropriate HRP reagent (e.g., TMB ultra, Thermo Fisher) was added to the wells. OD at 450 nm was measured by a microplate reader. MBG at 10 μM was assumed to be 100% competed, and MBG at 1 pM was assumed to be 0% competed. The data was plotted as a titration of antibody-antigen binding relative to free CTS concentration in the competition reaction to determine the free CTS concentration (μM) giving 50% maximal binding of antibody to immobilized MBG. The relative specificity of an antibody for a CTS was normalized to MBG=100%.

[5] = Competitive ELISA, relative CTS specificity, RBG as competitor; assay type: binding; conditions: competition with immobilized MBG-BSA; normalized to MBG = 100%
Description: as §2

[6] = Competitive ELISA, relative CTS specificity, CINO as competitor; assay type: binding; conditions: competition with immobilized MBG-BSA; normalized to MBG = 100%
Description: as §2

[7] = Competitive ELISA, relative CTS specificity, OUB as competitor; assay type: binding; conditions: competition with immobilized MBG-BSA; normalized to MBG = 100%
Description: as §2

[8] = Competitive ELISA, relative CTS specificity, DIG as competitor; assay type: binding; conditions: competition with immobilized MBG-BSA; normalized to MBG = 100%
Description: as §2

[9] = Competitive ELISA, free CTS competitors overall (summary and footnote); assay type: binding; conditions: competitors RBG, CINO, OUB, DIG; Table 2
Description: as §2

[10] = system: human umbilical cord venous endothelial cells (HUVEC); assay: Reversal of MBG inhibition of HUVEC cell proliferation (3H-thymidine); assay type: cell-based; conditions: MBG 2 nM, antibody 20 μg/mL, 48 hr; FIG. 3a
Description: MBG (2 nM) was incubated with an antibody (20 μg/mL in FIG. 3a with human anti-MBG mAbs, or varying concentrations (2.5-10 μg/mL) in FIG. 3b with humanized anti-MBG mAbs) prior to addition to cultured human umbilical cord venous endothelial cells (HUVEC). After 48 hr, DNA synthesis was assessed by incorporation of ^3H-thymidine.
HUVEC cells in endothelial cell growth medium were plated onto 96-well plates. The next day, the cells were pretreated with various antibodies (2.5-20 μg/mL) and then incubated with 2 nM MBG for 48 hr. [^3H]-Thymidine was added to each well. [^3H]-Thymidine-labeled DNA was assayed by harvesting the cells and assaying for ^3H using a PerkinElmer Wallac Tailux liquid scintillation counter. […] Means were tested for significance using Student's t-test.

[11] = system: PKC-δ in the nucleus of primary rat cardiac fibroblasts; assay: Inhibition of MBG-induced PKC-δ nuclear translocation (Western blot); conditions: MBG 2 nM; nuclei isolated 30 min later; FIG. 2a
Description: MBG was incubated with an anti-MBG antibody prior to addition to cultured primary rat cardiac fibroblasts. Nuclei were isolated 30 min later and analyzed for amount of PKC-6.

| Molecule | inhibition of NKA activity [1] | Estimated avidity (KA) (antibody concentration at 50% maximal binding to antigen, or EC50), Antigen 1 (MBG-BSA) [2] [nM] | Estimated avidity (KA) (antibody concentration at 50% maximal binding to antigen, or EC50), Antigen 2 (MBG-KLH) [3] [nM] | Rel. CTS Specificity as % of MBG Binding: MBG [4] [%] | Rel. CTS Specificity as % of MBG Binding: RBG [5] [%] | Rel. CTS Specificity as % of MBG Binding: CINO [6] [%] | Rel. CTS Specificity as % of MBG Binding: OUB [7] [%] | Rel. CTS Specificity as % of MBG Binding: DIG [8] [%] | reaction with CTS competitor molecules [9] | MBG inhibition of HUVEC cell proliferation, human mAbs [10] | amount of PKC-δ in the nucleus, MBG plus antibody [11] |
| --- | --- | --- | --- | --- | --- | --- | --- | --- | --- | --- | --- |
| C[C@@H]1O[C@@H](O[C@H]2C[C@@H](O)[C@]3(CO)[C@H]4[C@H](O)C[C@]5(C)[C@@H](C6=CC(=O)OC6)CC[C@]5(O)[C@@H]4CC[C@]3(O)C2)[C@H](O)[C@H](O)[C@H]1O [Ouabain, ouabain] | inhibit the NKA activity significantly | – | – | – | – | – | – | – | – | – | – |
| B1 | – | 0.12 | 0.14 | 100 | 0 | 0 | 0 | 0 | did not react with any of the CTS competitor molecules | significantly reduced | reduced |
| B2 | – | 0.33 | 0.20 | 100 | 50 | 20 | 0 | 0 | reacted with the CTS competitors RBG and CINO | significantly reduced | reduced |
| B3 | – | 0.32 | 0.20 | 100 | 10 | 0 | 0 | 0 | reacted with CTS competitor RBG | – | – |
| B4 | – | 1.35 | 0.20 | 100 | 20 | 0 | 0 | 0 | reacted with CTS competitor RBG | – | reduced |
